Drawing on PMC8486872 (2021), this text covers Kd for three molecules.

The experiment deals with Bcl2 (UniProt P10415 1-239). The experiment is described as follows: SPR.

Residue numbers refer to the chain shown, from its start.

Bcl2, sequence (P10415 whole entry): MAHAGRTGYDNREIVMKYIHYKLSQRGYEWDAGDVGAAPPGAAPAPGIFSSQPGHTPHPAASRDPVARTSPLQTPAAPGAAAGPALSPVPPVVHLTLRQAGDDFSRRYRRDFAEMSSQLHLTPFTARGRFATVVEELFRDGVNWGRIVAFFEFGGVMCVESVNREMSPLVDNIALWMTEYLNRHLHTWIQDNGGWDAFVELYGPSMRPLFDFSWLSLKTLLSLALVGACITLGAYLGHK

B1: LD3_v3 (designed binder)
chain: QRWELALGRFLEYLSWVSTLSEQVQEELLSSQVTQELRALMDETMKELKAYKSELEEQLTPVAEETRARLSKELQAAQARLGADMEDVRGRLVQYRGEVQAMLGQSTEELRVRLASHLIALALRLIGAAFDLQKRLAVY
In the case of B1, binding was characterised by a dissociation constant (Kd) of 147 nM.

B2: LD3_v1 (designed binder)
chain: B1 chain with E12A, A128D
B2 showed a dissociation constant Kd of 16.8 nM.

B3: LD3_v2 (designed binder)
chain: B1 chain with R124A, A128D
B3 returned a Kd of 64.1 nM.
